Experimental data published in article PMC12589655 (Nature Communications, 2025).

Target: the molecule itself
Assay: SEC-SAXS

B1: CVS wt P3, recombinant (rabies virus CVS-11 phosphoprotein, residues 53-297) (natural protein)
chain: MKRLHLDDEKSSNLGEMVRVGEGKYREDFQMDEGEDPNLLFQSYLDNVGVQIVRQMRSGERFLKIWSQTVEEIVSYVTVNFPNPPRRSSEDKSTQTTGRELKKETTSAFSQRESQPSKARMVAQVAPGPPALEWSATNEEDDLSVEAEIAHQIAESFSKKYKFPSRSSGIFLYNFEQLKMNLDDIVKEAKNVPGVTRLAHDGSKIPLRCVLGWVALANSKKFQLLVEADKLSKIMQDDLNRYTSC
B1 was tested, and the “stoichiometry N” value was 2.
